Laboratory results taken from publication PMC11127761.

Tests used:
Assay in all cases: electrochemical aptasensor (IPA 500 Hz, flow cell)
Conditions in all cases: 1-1000 pg/mL; NPY signal about 10x higher; 5' thiol C6 (disulfide reduced), 3' amino linker; aCSF pH 7.4 (composition by citation); SWV -0.4 to 0.0 V, 30 Hz; IPA 500 Hz in flow cell; assay temperature not stated
[1] = target: T1, Pancreatic polypeptide (PP) (UniProt P01298)
T1 sequence: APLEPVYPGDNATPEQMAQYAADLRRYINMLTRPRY

[2] = target: Peptide YY (PYY) (UniProt P10082)
[3] = target: T2, Somatostatin (SOM) (UniProt P61278)
T2 sequence: AGCKNFFWKTFTSC

Measured: binding signal (fraction of NPY signal)

Peptide YY (PYY), sequence (P10082 29-64): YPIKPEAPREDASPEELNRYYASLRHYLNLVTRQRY

AGCAGCACAGAGGTCAGATGCAAACCACAGCCTGAGTGGTTAGCGTATGTCATTTACGGACCTATGCGTGCTACCGTGAA [Aptamer 4.31]
0.1: all assays above
